The results in this text go back to PMC8865373 (Biochemistry, 2021).

As usually defined, the Kd is the free concentration of one partner at which half of the binding sites on the other are occupied at equilibrium, for simple one-to-one binding. Low readings indicate higher affinity, high ones lower affinity.

In assay [1] the target is T1, TAZ2 domain (residues 1764–1855) of wild-type mouse CBP (mouse, UniProt P45481 1764-1855).
T1 sequence (looked up): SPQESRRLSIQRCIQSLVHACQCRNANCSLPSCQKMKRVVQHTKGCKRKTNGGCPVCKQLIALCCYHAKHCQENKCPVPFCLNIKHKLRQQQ
Put plainly: fluorescence polarisation. A general note: In fluorescence polarisation assays a small probe gives low polarisation when free and higher when bound to something large.

For assay [2], the target named is T1, TAZ2 domain (residues 1764–1855) of …. Kind of assay: NMR titration.
The target is the same in assay [3]. Put plainly: NMR titration. This is another data set of the same source.
Assay [4] has the same target. Put plainly: fluorescence polarisation. The source holds these as a separate data set.

Where no end group is shown, it is not given here. [ ]: non-standard residue; d: D form. pS = N[C@@H](COP(=O)(O)O)C(=O)O

On to ETTDLYCYEQLNDSSEEEDE [E7 CR2 peptide (residues 18–37)], for which the figures for the equilibrium dissociation constant (Kd) in assay [1] and in assay [2] were 4.6 ± 0.2 µM and 3.4 µM, respectively.

B1: doubly-phosphorylated HPV16 ppE7(1–51) (domain or fragment)
chain: MHGDTPTLHEYMLDLQPETTDLYCYEQLND[pS][pS]EEEDEIDGPAGQAEPDRAH
In the case of B1, in assay [3], the binding result is on record as “binds”.

B2: HPV16 E7(1–51), unphosphorylated (domain or fragment)
chain: MHGDTPTLHEYMLDLQPETTDLYCYEQLNDSSEEEDEIDGPAGQAEPDRAH
In assay [1], B2 had a Kd of 0.1 ± 0.01 µM.

B3: ppE7(1–51)(L15V) (domain or fragment)
chain: MHGDTPTLHEYMLDVQPETTDLYCYEQLND[pS][pS]EEEDEIDGPAGQAEPDRAH
In the case of B3, the binding result in assay [3] is reported as “binds”. Same read-out and setting: as for PETTDLYCYEQLND[pS][pS]EEEDEIDGPAGQAEPDRAH (domain or fragment) [doubly-phosphorylated HPV16 ppE7(17–51)], the entry is “binds”. As for PETTDLYCYEQLNDSSEEEDEIDGPAGQAEPDRAH (domain or fragment) [HPV16 E7(17–51), unphosphorylated], the Kd in assay [1] amounted to 1.8 ± 0.1 µM.

B4: E7(1–51) C24A/A50C labeled with Alexa fluor 594, unphosphorylated (domain or fragment)
chain: MHGDTPTLHEYMLDLQPETTDLYAYEQLNDSSEEEDEIDGPAGQAEPDRC(Alexa Fluor 594)H
B4: binding in assay [4] was put at a Kd of 0.079 µM. Turning to MHGDTPTLHEYMLDLQPE-NH2 [E7 CR1 peptide (residues 1–18)], the Kd in assay [1] stood at 31 ± 2 µM; in assay [2] it was 69 µM.
